Measured values as given in US7361741.

Biological target: enzyme recognising antibody fragments

B1: Human Gastric Lipase (protein)
chain: LFGKLHPGSPEVTMNISQMITYWGYPNEEYEVVTEDGYILEVNRIPYGKKNSGNTGQRPVVFLQHGLLASATNWISNLPNNSLAFILADAGYDVWLGNSRGNTWARRNLYYSPDSVEFWAFSFDEMAKYDLPATIDFIVKKTGQKQLHYVGHSQGTTIGFIAFSTNPSLAKRIKTFYALAPVATVKYTKSLINKLRFVPQSLFKFIFGDKIFYPHNFFDQFLATEVCSREMLNLLCSNALFIICGFDSKNFNTSRLDVYLSHNPAGTSVQNMFHWTQAVKSGKFQAYDWGSPVQNRMHYDQSQPPYYNVTAMNVPIAVWNGGKDLLADPQDVGLLLPKLPNLIYHKEIPFYNHLDFIWAMDAPQEVYNDIVSMISEDKK
enzyme activity assay (DGGR substrate): Approximately 30 to 60% of the enzyme recognising antibody fragments showed to inhibit the enzyme
